Assay [1] deals with β chain of IL-2 receptor on the surface of each YT cell. In words: Inhibition of binding of 125I-labelled TU27 or TU25 antibody to YT cells. Also noted: species or system human. To be noted: 4° C. How it is done: In an RPMI-1640 culture medium containing 0.5% BSA and 0.02% […] there were suspended 5×10^5 YT cells to which were added polypeptide Fv(TU27), TU27 antibody, polypeptide Fv(TU25) and TU25 antibody diluted with the same type culture medium to an appropriate concentration and then reacted for one hour at 4° C. Then a TU27 or TU25 antibody labelled with ^125 I according to the chloramine T method was added to the mixture which was subjected to a 2 hour reaction at 4° C., after which the radioactivity bound to cell surfaces was measured.

In assay [2] the test system is β chain of IL-2 receptor. In words: Inhibition of binding of 125I-labelled IL-2 to MOLT4 cells transfected with cDNA for the β chain of IL-2 receptor. Also on record: species or system human. The note with it: 4° C. How it is done:
To the resulting suspension were added polypeptide Fv(TU27), TU27 monoclonal antibody (originating in hybridoma FERM BP-2510), polypeptide Fv(TU25) and TU25 monoclonal antibody (originating in hybridoma FERM BP-3529) diluted with the same type culture medium to an appropriate concentration, and this was reacted for one hour at 4° C.

Assay [3] deals with β chain of human IL-2 receptor (human, UniProt P14784). In words: competition with 125I-labelled TU27 or TU25 antibody on YT cells. How it is done: In an RPMI-1640 culture medium containing 0.5% BSA and 0.02% NaN_2 there were suspended 5×10^5 YT cells to which were added polypeptide Fv(TU27), TU27 antibody, polypeptide Fv(TU25) and TU25 antibody diluted with the same type culture medium to an appropriate concentration and then reacted for one hour at 4° C. Then a TU27 or TU25 antibody labelled with ^125I according to the chloramine T method was added to the mixture which was subjected to a 2 hour reaction at 4° C., after which the radioactivity bound to cell surfaces was measured.

B1: polypeptide Fv(TU25) (scFv)
scFv: MDIQLTQSPAILSVSPGERVSFSCRASQTIGTSIHWYQQRTNGSPRLLIKYASESISGIPSRFSGSGSGTDFTLSINNVESEDIADYYCQQTNTWPTTFGSGTKLELKVDKSSGSGSESKSTQVKLEQSGGGLVKPGGSLKLSCAASGFAFSSYDMSWVRQTPEKRLNWVATFSSDGSDTDYPDSVKGRFTISRDNARNTLYLQMSSLRSEDTALYYCARGYPYAMDYWGQGTTVTVSS
Turning to B1, the “activity to inhibit the binding between TU27 or TU25 monoclonal antibody and the β chain of IL-2 receptor” value in assay [1] is given as “have activity to inhibit the binding”. For the same molecule, in assay [2], the “activity to inhibit the binding of IL-2 to a β chain of an IL-2 receptor” value is on record as “have activity to inhibit the binding of IL-2”. The binding result in assay [3] was “binds”.

B2: Fv(TU27): single chain polypeptide of 240 amino acids consisting only of V regions of TU27 anti-IL-2 receptor β chain antibody (protein)
scFv: MDILLTQSPAILSVSPGERVSFSCRASQSIGTSIHWYQQRTNGSPRLLIKYASESLSGIPSRFSGSGSGTDFTLSITSVDSEDIADYYCQQTNSWPTTFGGGTKLELKVDKSSGSGSESKSTQVKLEESGPGLVKPSQSLSLTCTVTGYPITSDYAWDWIRQFPGNKLEWMGYVSYSGSTDYNPSLKSRISISRDTSKNQFFLQLNSVTTEDTATYYCARGGFPYAMDYWGQGTTVTVSS
Turning to B2, the “activity to inhibit the binding between TU27 or TU25 monoclonal antibody and the β chain of IL-2 receptor” value in assay [1] is on record as “have activity to inhibit the binding”. The “activity to inhibit the binding of IL-2 to a β chain of an IL-2 receptor” value in assay [2] was “have activity to inhibit the binding of IL-2”.
